± gives the uncertainty stated by the source.
Experiment: self-splicing fitness, log relative to wild type (ln ratio); higher = more splicing; Tetrahymena group I intron in knt gene, E. coli kanamycin selection, DiMSum; sequences stand for … in CUCUCU…GGAGGGAAAAGUUAUCAGGCAUGCACCUGGUAGCUAGUCUUUAAACCAAUAGAUUGCAUCGGUUUAAAAGGCAAGACCGUCAAAUUGCGGGAAAGGGGUCAACAGCCGUUCAGUACCAAGUCUCAGGGGAAACUUUGAGAUGGCCUUGCAAAGGGUAUGGUAAUAAGCUGACGGACAUGGUCCUAACCACGCAGCCAAGUCCUAAGUCAACAGAUCUUCUGUUGAUAUGGAUGCAGUUCACAGACUAAAUGUCGGUCGGGGAAGAUGUAUUCUUCUCAUAAGAUAUAGUCGGACCUCUCCUUAAUGGGAGCUAGCGGAUGAAGUGAUGCAACACUGGAGCCGCUGGGAACUAAUUUGUAUGCGAAAGUAUAUUGAUUAGUUUUGGAGUACUCGUGGUCG
Outline: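 DiMSum derived fitness as the error-weighted combination of fold changes across replicates, kanamycin versus no kanamycin, normalised to wild type. E. coli BL21(DE3) held the library, which randomised all eight P1ex-region intron nucleotides within the knt kanamycin-resistance gene on pET-22b(+). Six replicate transformations grew overnight at 37°C or 30°C on LB agar with or without 25 μg/mL kanamycin, also containing 100 μg/mL carbenicillin, 50 μM IPTG and 0.2% rhamnose, and pooled colonies were amplicon-sequenced on an Illumina HiSeq 2500.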

| Sequence | self-splicing fitness (ln) (30 °C) | self-splicing fitness (ln) (37 °C) |
| --- | --- | --- |
| GUCUAGCAAUAUUACGAUUA | -0.177 ± 0.17 | 0.177 ± 0.12 |
| AAUCAGCAAUAUUACGUGUU | -0.901 ± 0.056 | 0.209 ± 0.064 |
| ACUGAGCAAUAUUACGGUUC | -3.46 ± 0.19 | -2.08 ± 0.21 |
| GUUUAGCAAUAUUACGAAAG | -1.07 ± 0.18 | -0.341 ± 0.22 |
| CCCGAGCAAUAUUACGCAUC | -2 ± 0.15 | -1.45 ± 0.2 |
| AUACAGCAAUAUUACGGACA | -1.55 ± 0.13 | -0.413 ± 0.13 |
| CGGUAGCAAUAUUACGUACC | -3.27 ± 0.4 | -1.89 ± 0.3 |
| AACGAGCAAUAUUACGAUAU | -3.13 ± 0.21 | -1.3 ± 0.17 |
| GCUAAGCAAUAUUACGUAUA | -1.76 ± 0.12 | -0.55 ± 0.13 |
| AUCCAGCAAUAUUACGAACA | -0.801 ± 0.087 | -0.748 ± 0.11 |
| GGGCAGCAAUAUUACGGAUG | -3.41 ± 0.26 | -2.81 ± 0.34 |
| GCCCAGCAAUAUUACGCGCG | -2.16 ± 0.14 | -0.815 ± 0.13 |
| UGGCAGCAAUAUUACGGAGG | -2.38 ± 0.12 | -1.87 ± 0.15 |
| CCACAGCAAUAUUACGUAAU | -3.17 ± 0.13 | -2.41 ± 0.2 |
| CCUCAGCAAUAUUACGCUGU | -2.84 ± 0.17 | -2.05 ± 0.25 |
| AGAGAGCAAUAUUACGUAGU | -3.49 ± 0.3 | -2.47 ± 0.26 |
| CGCGAGCAAUAUUACGUAUU | -3.09 ± 0.43 | -2.6 ± 0.39 |
| GAAGAGCAAUAUUACGCUAU | -2.39 ± 0.24 | -2.79 ± 0.48 |
| GUUGAGCAAUAUUACGAUUG | -4.05 ± 0.32 | -1.87 ± 0.27 |
| ACUCAGCAAUAUUACGGCUG | -2.36 ± 0.21 | -2.86 ± 0.29 |
| AGACAGCAAUAUUACGGUCG | -1.02 ± 0.093 | -0.102 ± 0.12 |
| UCCCAGCAAUAUUACGGACU | -2.81 ± 0.11 | -1.21 ± 0.096 |
| GAGAAGCAAUAUUACGGUCG | -0.943 ± 0.11 | -0.253 ± 0.11 |
| UGACAGCAAUAUUACGACCA | -0.143 ± 0.1 | 0.216 ± 0.15 |
| GAUAAGCAAUAUUACGUGGC | -3.32 ± 0.21 | -2.24 ± 0.27 |
| CCAAAGCAAUAUUACGCUAG | -3.78 ± 0.2 | -2.4 ± 0.16 |

| Sequence | self-splicing fitness (ln) (30 °C) | self-splicing fitness (ln) (37 °C) |
| --- | --- | --- |
| UAGAAGCAAUAUUACGGUUG | -1.79 ± 0.089 | -0.948 ± 0.11 |
| ACUCAGCAAUAUUACGUGUG | -1.39 ± 0.061 | -1.3 ± 0.072 |
| AUUAAGCAAUAUUACGCCAU | -1.86 ± 0.2 | -1.52 ± 0.15 |
| GCACAGCAAUAUUACGUAGU | -0.976 ± 0.057 | -0.516 ± 0.072 |
| CAGAAGCAAUAUUACGACGG | -0.126 ± 0.079 | 0.104 ± 0.1 |
| UGCAAGCAAUAUUACGGUUC | -2.93 ± 0.19 | -1.92 ± 0.17 |
| GUCGAGCAAUAUUACGUGCA | -2.29 ± 0.22 | -0.701 ± 0.17 |
| CAGCAGCAAUAUUACGAGAU | -2.65 ± 0.24 | -1.71 ± 0.2 |
| UACAAGCAAUAUUACGCACA | -1.23 ± 0.11 | -0.242 ± 0.11 |
| GAAGAGCAAUAUUACGGUGC |  | -2.41 ± 0.21 |
| UGAGAGCAAUAUUACGCUCG |  | -1.32 ± 0.45 |
| ACCUAGCAAUAUUACGGCAA | -1.41 ± 0.17 | 0.02 ± 0.14 |
| GCCAAGCAAUAUUACGCUCA | -0.458 ± 0.093 | 0.0485 ± 0.12 |
| UCCGAGCAAUAUUACGCCGU | -2.21 ± 0.22 |  |
| UCAGAGCAAUAUUACGUGAC | -3.69 ± 0.28 | -1.9 ± 0.23 |
| AGGCAGCAAUAUUACGGAUG | -2.3 ± 0.1 | -2.58 ± 0.21 |
| CAUGAGCAAUAUUACGGGAG | -1 ± 0.095 | -1.54 ± 0.13 |
| GACUAGCAAUAUUACGCGUG | -1.44 ± 0.061 | -0.609 ± 0.067 |
| GAUUAGCAAUAUUACGUGCG | -2.8 ± 0.16 | 0.0923 ± 0.12 |
| UCACAGCAAUAUUACGACGA | -0.431 ± 0.071 | -0.228 ± 0.073 |
| CCACAGCAAUAUUACGAGGA | -3.8 ± 0.18 | -1.32 ± 0.12 |
| AAUUAGCAAUAUUACGGACA | -0.45 ± 0.19 | -1.28 ± 0.18 |
| UCACAGCAAUAUUACGAUGC | -3.33 ± 0.17 | -1.26 ± 0.13 |
| AAUCAGCAAUAUUACGUGGG | -2.12 ± 0.11 | -1.09 ± 0.12 |
| CAACAGCAAUAUUACGGCGA | -1.5 ± 0.094 | -0.709 ± 0.087 |
| GCGGAGCAAUAUUACGGUAC |  | -2.04 ± 0.36 |

| Sequence | self-splicing fitness (ln) (30 °C) | self-splicing fitness (ln) (37 °C) |
| --- | --- | --- |
| UUGCAGCAAUAUUACGGGCG | -0.91 ± 0.11 | -0.511 ± 0.11 |
| AAGGAGCAAUAUUACGCCCG | -1.88 ± 0.17 | -1.01 ± 0.22 |
| GAGCAGCAAUAUUACGUGCC | -1.58 ± 0.41 | -1.34 ± 0.26 |
| UUGAAGCAAUAUUACGACUU | -1.37 ± 0.14 | 0.101 ± 0.17 |
| CCAAAGCAAUAUUACGUCUU | -4.12 ± 0.21 | -2.43 ± 0.14 |
| UGGCAGCAAUAUUACGCUUG | -2.46 ± 0.12 | -0.728 ± 0.15 |
| UAUUAGCAAUAUUACGAGUC | -3.35 ± 0.48 |  |
| CGCUAGCAAUAUUACGCUCG | -1.72 ± 0.22 | -1.02 ± 0.4 |
| CGUGAGCAAUAUUACGCGUU | -3.11 ± 0.28 | -2.72 ± 0.2 |
| AGCGAGCAAUAUUACGUGCC | -3.37 ± 0.41 | -0.439 ± 0.22 |
| UAAGAGCAAUAUUACGAGGC |  | -1.97 ± 0.41 |
| GUCGAGCAAUAUUACGACCA |  | -0.961 ± 0.42 |
| AAUAAGCAAUAUUACGACAC | -1.12 ± 0.16 | -0.462 ± 0.16 |
| UGCGAGCAAUAUUACGCCUU |  | -1.7 ± 0.38 |
| CACCAGCAAUAUUACGUAAG | 0.114 ± 0.041 | 0.336 ± 0.061 |
| ACAUAGCAAUAUUACGUUAA | -3.09 ± 0.19 | -1.36 ± 0.15 |
| CUGCAGCAAUAUUACGUUCA | -3.81 ± 0.2 | -1.97 ± 0.15 |
| UAUGAGCAAUAUUACGGCCA |  | -1.18 ± 0.28 |
| CCUGAGCAAUAUUACGAUCC | -4.29 ± 0.47 | -2.96 ± 0.48 |
| GAGGAGCAAUAUUACGAGAG | -2.77 ± 0.32 | -2.76 ± 0.41 |
| UAGUAGCAAUAUUACGUUCU | -1.88 ± 0.12 | -0.844 ± 0.098 |
| UAACAGCAAUAUUACGCCAA | -3.04 ± 0.19 | -1.38 ± 0.14 |
| UAACAGCAAUAUUACGAUGC | -3.84 ± 0.33 | -2.35 ± 0.26 |
| AAUGAGCAAUAUUACGCGCU |  | -1.72 ± 0.37 |
| AUCAAGCAAUAUUACGAUCC | -2.34 ± 0.2 | -0.539 ± 0.21 |
| GUCAAGCAAUAUUACGAUGC | -1.3 ± 0.098 | -0.442 ± 0.11 |

— the supplement of paper PMC7877785
